A word on the Kd: it is the free concentration of one partner at which half of the binding sites on the other are occupied at equilibrium, for simple one-to-one binding. Low values mean higher affinity, high ones lower affinity.

The text below walks through data of article PMC6351565, “Mechanism of IRSp53 inhibition by 14-3-3” (Nature Communications, 2019).

One series has as its target T1, pIRSp53FS (human (from the printed UniProt entry), UniProt Q9UQB8-4 1-521, S519C, natively phosphorylated in HEK293T cells; fluorescein maleimide / rhodamine maleimide on C230 and C519).
T1 construct: IRSp53 (BAIAP2), isoform-4, UniProt Q9UQB8-4, full length, S519C; Expressed and purified as m4; also called IRSp53 FRET sensor; phosphorylated IRSp53 (mutant S519C)
T1 sequence (looked up): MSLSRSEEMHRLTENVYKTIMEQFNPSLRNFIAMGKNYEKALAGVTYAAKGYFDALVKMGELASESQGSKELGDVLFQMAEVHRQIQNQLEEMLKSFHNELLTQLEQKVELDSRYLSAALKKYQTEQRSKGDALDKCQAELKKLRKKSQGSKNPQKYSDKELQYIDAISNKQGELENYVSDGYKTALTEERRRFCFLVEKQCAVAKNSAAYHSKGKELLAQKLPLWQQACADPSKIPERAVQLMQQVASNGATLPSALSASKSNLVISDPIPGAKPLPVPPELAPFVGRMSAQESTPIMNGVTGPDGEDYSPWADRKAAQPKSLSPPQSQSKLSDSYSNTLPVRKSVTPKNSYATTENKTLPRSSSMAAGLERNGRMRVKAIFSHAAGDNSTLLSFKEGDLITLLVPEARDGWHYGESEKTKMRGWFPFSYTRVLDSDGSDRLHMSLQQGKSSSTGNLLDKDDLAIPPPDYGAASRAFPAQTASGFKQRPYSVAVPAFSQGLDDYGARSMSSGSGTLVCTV
Briefly: other fluorescence titration; intramolecular FRET sensor (fluorescein/rhodamine on C230 and C519 of IRSp53); Cdc42, Eps8 and/or 14-3-3θ titrated into the sensor, also back to back; 20 °C; 25 mM Tris-HCl pH 7.5, 150 mM NaCl, 1 mM MgCl2, 5% glycerol, 0.1 mM TCEP; observed Kd (Kobs) from the fits. The settings on record: both partners purified.

The next series concerns the target T2, pM234FS (human (from the printed UniProt entry), UniProt Q9UQB8-4 1-521, T340A | T360A | S366A | S519C, fluorescein / rhodamine labels as in pIRSp53FS (C230 and C519)).
T2 construct: IRSp53 (BAIAP2), isoform-4, UniProt Q9UQB8-4, full length, FRET sensor (S519C) with T340A/T360A/S366A; also called modified FRET sensor T340A/T360A/S366A; source: serum-starved HEK293T, purified, labelled
T2 sequence (looked up): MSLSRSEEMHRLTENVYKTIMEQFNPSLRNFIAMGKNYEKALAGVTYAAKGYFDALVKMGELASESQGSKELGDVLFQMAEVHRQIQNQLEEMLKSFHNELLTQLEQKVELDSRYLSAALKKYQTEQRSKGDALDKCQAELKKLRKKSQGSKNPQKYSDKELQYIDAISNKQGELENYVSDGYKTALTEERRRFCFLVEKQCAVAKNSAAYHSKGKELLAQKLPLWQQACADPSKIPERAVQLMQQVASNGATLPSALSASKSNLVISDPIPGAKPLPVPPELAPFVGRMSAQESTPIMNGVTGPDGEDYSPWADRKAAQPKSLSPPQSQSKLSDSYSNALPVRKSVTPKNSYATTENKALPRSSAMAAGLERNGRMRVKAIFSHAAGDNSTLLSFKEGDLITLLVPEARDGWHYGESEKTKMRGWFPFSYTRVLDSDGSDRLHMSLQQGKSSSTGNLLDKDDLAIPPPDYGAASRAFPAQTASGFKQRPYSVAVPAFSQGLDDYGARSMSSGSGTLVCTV
Described as above. The settings on record: both partners purified.

Series [1] addresses T3, FLAG-Eps8/pIRSp53 complex (human | human (from the printed UniProt …, UniProt Q12929 1-822)); Q9UQB8-4 1-521, natively phosphorylated in HEK293T cells (as m4)).
T3 construct: Eps8, human, UniProt Q12929, full length; IRSp53 (BAIAP2), isoform-4, UniProt Q9UQB8-4, full length; source: formed from purified 2xFLAG-Eps8 (HEK293T) and purified pIRSp53 (serum-starved HEK293T)
Briefly: pull-down; anti-Flag magnetic beads with or without the FLAG-Eps8/pIRSp53 complex; 14-3-3θ detected. The settings on record: both partners purified.

Series [2] deals with the molecule itself. The series can be described thus: crystal structure; 14-3-3θ pre-incubated with singly (2.5:1) or doubly (0.6:1) phosphorylated IRSp53 peptides; hanging drop, 18 °C; resolution 2.0 to 2.9 Å.
Another series concerns the target T4, 2xFLAG-Eps8 (human, UniProt Q12929 1-822).
T4 construct: Eps8, human, UniProt Q12929, full length; also called FLAG-tagged Eps8
The series can be described thus: pull-down; anti-Flag magnetic beads with or without the FLAG-Eps8/pIRSp53 complex; 14-3-3θ detected. Particulars: both partners purified.

T3 sequence (Q12929 whole entry, canonical isoform, one chain of several): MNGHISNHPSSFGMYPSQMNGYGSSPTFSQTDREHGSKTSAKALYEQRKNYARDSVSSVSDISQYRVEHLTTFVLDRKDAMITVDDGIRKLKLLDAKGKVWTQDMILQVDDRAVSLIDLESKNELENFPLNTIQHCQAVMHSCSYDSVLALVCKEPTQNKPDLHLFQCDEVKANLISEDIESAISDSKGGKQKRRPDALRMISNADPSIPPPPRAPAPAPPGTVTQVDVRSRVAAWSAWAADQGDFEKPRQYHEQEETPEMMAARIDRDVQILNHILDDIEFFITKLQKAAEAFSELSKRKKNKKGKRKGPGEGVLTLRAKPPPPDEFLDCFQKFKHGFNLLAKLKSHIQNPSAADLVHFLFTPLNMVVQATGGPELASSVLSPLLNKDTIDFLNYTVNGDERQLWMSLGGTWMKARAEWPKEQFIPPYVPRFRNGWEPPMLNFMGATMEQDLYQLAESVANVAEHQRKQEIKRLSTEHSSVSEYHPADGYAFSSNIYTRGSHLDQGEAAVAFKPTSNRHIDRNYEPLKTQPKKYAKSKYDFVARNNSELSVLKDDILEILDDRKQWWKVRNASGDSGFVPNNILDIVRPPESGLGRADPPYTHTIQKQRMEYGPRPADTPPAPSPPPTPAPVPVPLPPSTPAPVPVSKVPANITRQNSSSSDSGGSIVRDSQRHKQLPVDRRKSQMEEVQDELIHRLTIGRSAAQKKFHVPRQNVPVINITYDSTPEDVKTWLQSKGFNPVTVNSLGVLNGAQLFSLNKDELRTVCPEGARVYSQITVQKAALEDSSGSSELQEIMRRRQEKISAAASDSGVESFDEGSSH
T4 sequence (Q12929 whole entry): as the sequence (Q12929 whole entry, canonical isoform, one chain of several) above

B1: GMPPNP-Cdc42 (constitutively active mutant G12V) (domain or fragment)
chain: not shown
notes: Cdc42, human, residues 1-178, G12V; Loaded with GMPPNP; also called GNPPNP-Cdc42 (G12V mutant); source: E. coli BL21(DE3), purified
In the series with pIRSp53FS, B1 gave a dissociation constant (Kd) of 19.1 µM. For the same molecule, the binding result in the series with pM234FS was “binds”.

B2: 14-3-3θ (natural protein, human)
chain: MEKTELIQKAKLAEQAERYDDMATCMKAVTEQGAELSNEERNLLSVAYKNVVGGRRSAWRVISSIEQKTDTSDKKLQLIKDYREKVESELRSICTTVLELLDKYLIANATNPESKVFYLKMKGDYFRYLAEVACGDDRKQTIDNSQGAYQEAFDISKKEMQPTHPIRLGLALNFSVFYYEILNNPELACTLAKTAFDEAIAELDTLNEDSYKDSTLIMQLLRDNLTLWTSDSAGEECDAAEGAEN
notes: 14-3-3θ, human, UniProt P27348; also called 14-3-3 theta; 14-3-3τ
In the case of B2, in the series with pIRSp53FS, the Kd was determined as 0.079 µM. The binding result in series [1] and in series [2] was “binds” throughout.

B3: IRSp53-FLAG (wild type), natively phosphorylated (natural protein, human (from the printed UniProt entry), UniProt Q9UQB8-4 1-521, looked up)
chain: MSLSRSEEMHRLTENVYKTIMEQFNPSLRNFIAMGKNYEKALAGVTYAAKGYFDALVKMGELASESQGSKELGDVLFQMAEVHRQIQNQLEEMLKSFHNELLTQLEQKVELDSRYLSAALKKYQTEQRSKGDALDKCQAELKKLRKKSQGSKNPQKYSDKELQYIDAISNKQGELENYVSDGYKTALTEERRRFCFLVEKQCAVAKNSAAYHSKGKELLAQKLPLWQQACADPSKIPERAVQLMQQVASNGATLPSALSASKSNLVISDPIPGAKPLPVPPELAPFVGRMSAQESTPIMNGVTGPDGEDYSPWADRKAAQPKSLSPPQSQSKLSDSYSNTLPVRKSVTPKNSYATTENKTLPRSSSMAAGLERNGRMRVKAIFSHAAGDNSTLLSFKEGDLITLLVPEARDGWHYGESEKTKMRGWFPFSYTRVLDSDGSDRLHMSLQQGKSSSTGNLLDKDDLAIPPPDYGAASRAFPAQTASGFKQRPYSVAVPAFSQGLDDYGARSMSSGSGTLVSTV
modifications: phosphorylated in HEK293T cells at S325, T340, T360, S366 and a residue within 452SSST455, most likely S454 (mass spectrometry of the purified 14-3-3-binding-competent fraction)
notes: also called pIRSp53; WT IRSp53-FLAG; source: HEK293T, transfected, in lysate; not shown: FLAG, C-terminal, kept
Regarding B3, the binding result with 2xFLAG-Eps8 is given as “binds”.
